Measurements taken from PMC6277417 (Scientific Reports, 2018).

B1: Ab#2_GLP1: DPP-4-resistant GLP-1 analogue peptide fused by the [G4S]3A linker to the light chain of anti-PCSK9 Ab#2 (antibody, V domains shown)
VH: QVQLVQSGAEVKKPGASVKVSCKASGYTFTSYYMHWVRQAPGQGLEWMGEIHPSGGRTNYNEKFKSRVTMTRDTSTSTVYMELSSLRSEDTAVYYCARERPLYASDLWGQGTTVTVSS
VL: DIQMTQSPSSLSASVGDRVTITCKASQDVHTAVAWYQQKPGKAPKLLIYHASYRYTGVPSRFSGSGSGTDFTFTISSLQPEDIATYYCQQRYSLWRTFGQGTKLEIK
notes: also called non-glycosylated Ab#2_GLP1 fusion; source: CHO cells, transient co-transfection, purified (Protein A MabSelectSure)
B2: anti-PCSK9 antibody Ab#2 (antibody, V domains shown)
VH: B1 VH
VL: B1 VL
notes: also called anti-PCSK9 Ab#2; source: CHO cells, transient co-transfection, purified (Protein A MabSelectSure)

How the values were obtained:
[1] = target: human GLP-1 receptor on stably transfected CHO cells (human) (UniProt P43220)
Sequence of human GLP-1 receptor on stably transfected CHO cells (human) (P43220 24-463): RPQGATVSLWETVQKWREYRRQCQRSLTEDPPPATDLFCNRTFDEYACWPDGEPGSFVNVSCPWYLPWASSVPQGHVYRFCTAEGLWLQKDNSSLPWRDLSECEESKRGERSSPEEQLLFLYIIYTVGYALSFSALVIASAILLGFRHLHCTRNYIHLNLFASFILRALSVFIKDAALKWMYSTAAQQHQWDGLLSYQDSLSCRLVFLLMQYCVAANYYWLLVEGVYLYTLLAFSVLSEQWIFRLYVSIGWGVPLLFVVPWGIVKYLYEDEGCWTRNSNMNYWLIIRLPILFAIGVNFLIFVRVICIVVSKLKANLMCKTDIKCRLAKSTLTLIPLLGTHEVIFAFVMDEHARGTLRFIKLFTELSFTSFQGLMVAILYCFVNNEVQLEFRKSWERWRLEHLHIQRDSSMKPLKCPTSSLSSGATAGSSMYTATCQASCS

[2] = target: T1, recombinant human PCSK9 (proprotein convertase subtilisin/kexin type 9) (human, UniProt Q8NBP7); assay: SPR; sensorgrams of recombinant human PCSK9 binding to Ab#2 and to Ab#2_GLP1; typical of 8 independent experiments; set-up and conditions not told in the main text; settings: both partners purified
T1 construct: also called recombinant PCSK9; source: recombinant

Binder	potency in the cAMP accumulation assay, CHO cells expressing human GLP-1R [1] [nM]	binding result [2]
B1	0.087	binds
B2	–	binds
